Holding throughout (format): biochemical
In assay [1] the test system is Pol I transcription. The assay is described as follows: Complementation of Pol I transcription in nuclear extracts from rapamycin-treated FM3A cells. As to the method: (B) Complementation of transcriptional activity in nuclear extracts from rapamycin-treated cells. Transcription reactions contained nuclear extracts (30 μg) from untreated (NE) or rapamycin-treated (NERapa) FM3A cells. In lanes 3-7, fractions containing partially purified Pol I transcription factors were added to NERapa-containing reactions.
(C) TIF-IA activates transcription in nuclear extracts form rapamycin-treated cells. Reactions were complemented with either 1 μl (lanes 2 and 5) of cellular TIF-IA (PL-650 fraction) or 20 ng (lanes 3 and 6) of immunopurified recombinant TIF-IA that has been expressed in SF9 cells.
(A) mTOR rescues transcription in vitro. Pol I transcription was assayed in nuclear extracts from rapamycin-treated FM3A cells. Reactions were supplemented with 50 ng TIF-IA (lane 1) or 10 ng, 20 ng and 30 ng of HA-mTOR (lanes 3-5).
(B) S6K1 activates Pol I transcription in extracts from rapamycin-treated cells. NERapa was supplemented with 50 ng TIF-IA (lane 1) or 100, 150 and 200 ng of GST-S6K1 (lanes 3-5) or GST-S6K1dd (lanes 6-8).
(§1) Nuclear extracts were prepared from exponentially growing (8×10^5 cells/ml), density-arrested or PD98059-treated (CN Bioscience, Bad Soden, Germany) 40 μM, 0.5 hr) or rapamycin-treated FM3A cells (ATCC, Manassas, USA). 25 μl assays contained 50 ng of template DNA (pMr600/EcoRI), 30 μg nuclear extract proteins and 12 mM Hepes-KOH, [pH8.0], 0.1 mM EDTA, 5 mM MgCl2, 80 mM KCl, 10 mM creatine phosphate, 12% (v/v) glycerol, 0.66 mM each of ATP, GTP and CTP, 0.01 mM UTP and 0.5 μCi [α-^32P]UTP (5000 Ci/mmol). After incubation for 60 min at 30° C., RNA was extracted and analyzed on non-denaturing 5% polyacrylamide gels
mTOR and S6K1 were purified from HEK293T cells overexpressing HA-tagged mTOR or GST/myc-tagged S6K1, respectively. 5×10^6 cells were lysed in 0.8 ml IP buffer, centrifuged at 10,000×g for 20 min, and the supernatants were incubated for 4 hr at 4° C. with either 15 μg anti-HA antibodies bound to 20 μl protein G-agarose (for HA-mTOR) or 20 μl packed GST-glutathione beads (for GST-myc-S6K1). […]

Another assay concerns the target T1, RSK2 (Mus musculus, UniProt P18654, A376E/A378E/F387I/G384D/H379Q/INS385D/L381M/N377E/Q380E/S369E/S386Y/T365E).
T1 construct: made in house; host or cells: HEK293T (kinase, immunopurified via HA); E. coli BL21(DE3) (GST substrate)
Briefly: In vitro kinase assay with immunopurified RSK2. As to the method:
(A) Tryptic peptide maps of recombinant TIF-IA phosphorylated by RSK2 in vitro. GST/TIF-IA409-651 was phosphorylated with HA-RSK-CA in vitro and the phosphopeptide pattern was compared with that of wild-type TIF-IA and TIF-IA1-632 labeled in vivo.
HA-tagged ERK1/2 or RSK2-CA was overexpressed in HEK293T cells, immunopurified and immobilized to protein G agarose. After stringent washing, the beads were suspended in 20 μl of 1.5× kinase assay buffer (75 mM Tris-HCl [pH 8.0], 15 mM MgCl2, 1.5 mM DTT, 5% glycerol) and assayed for activity. 30 μl reactions contained 100 μM ATP, 0.2 μCi of […] (5000 Ci/mmol), 0.5-1 μg S6 peptide (RRSSLRA) or GST/TIF-IA (Yuan et al. EMBO Reports 3 (2002) 1082-1087) and 10 fmoles RSK. After incubation for 30 min at 30° C., 5 μl of the supernatants were spotted onto phosphocellulose paper (Whatman p81), washed with 150 mM orthophosphoric acid and quantified with a PhosphorImager (Molecular Dynamics, Inc.). Alternatively, labeled GST/TIF-IA was subjected to SDS-PAGE, blotted onto nitrocellulose, digested with trypsin and analyzed by two-dimensional phosphopeptide mapping.
Phosphoamino acid analysis has established that TIF-IA is exclusively phosphorylated on serine residues (data not shown). The C-terminal tryptic peptide of TIF-IA contains three S—P sites (FIG. 4B, upper panel), a known target motif for MAPKs. […]

Assay [2] relates to Pol I transcription. The assay is described as follows: Complementation of Pol I transcription in nuclear extracts from PD98059-treated FM3A cells. As to conditions: standard transcription system containing ATP and GTP. As for the experimental part:
(C) TIF-IA, but not UBF, rescues Pol I transcription in extracts from PD98059-treated cells. Nuclear extracts from untreated or PD98059-treated FM3A cells were supplemented with 20 and 40 ng of purified TIF-IA and/or UBF (10 ng in lanes 7 and 9, 50 ng in lanes 3, 8 and 10).
(D) TIF-IA activates transcription in extracts from PD98059-treated cells in the presence of AMP-PNP and GMP-PNP. Nuclear extracts from PD98059-treated FM3A cells were supplemented with 40 ng of purified TIF-IA and assayed in the standard transcription system containing ATP and GTP (ATP, lanes 1, 2) or AMP-PNP and GMP-PNP (AMP-PNP, lanes 3, 4)
(D) ERK/RSK-dependent phosphorylation activates Pol I transcription in vitro. Nuclear extracts from PD98059-treated FM3A cells were supplemented with 40 ng of TIF-IA, 10 ng of HA-RSK, or 10 ng of HA-ERK as indicated, and transcriptional activity was assayed in the standard transcription system containing ATP and GTP (lanes 4-8) or AMP-PNP and GMP-PNP (lanes 9-13).
as §1
To test whether both TIF-IA and UBF, or TIF-IA alone, were targeted by ERK-mediated phosphorylation, nuclear extracts from untreated and PD98059-treated cells were assayed for rDNA transcription in the absence and presence of exogenous TIF-IA or UBF (FIG. 2C). If both UBF and TIF-IA were inactivated by PD98059, rescue of Pol I transcriptional activity would require both factors, whereas TIF-IA alone would be sufficient if it was the only factor that is inactivated by inhibition of the ERK pathway. […]

The results in this text go back to US20060057669A1, “Inactive transcription factor tif-ia and uses thereof” (priority 2002, published 2006).

T1 sequence (P18654 with tags, fused parts or gaps with the stated changes): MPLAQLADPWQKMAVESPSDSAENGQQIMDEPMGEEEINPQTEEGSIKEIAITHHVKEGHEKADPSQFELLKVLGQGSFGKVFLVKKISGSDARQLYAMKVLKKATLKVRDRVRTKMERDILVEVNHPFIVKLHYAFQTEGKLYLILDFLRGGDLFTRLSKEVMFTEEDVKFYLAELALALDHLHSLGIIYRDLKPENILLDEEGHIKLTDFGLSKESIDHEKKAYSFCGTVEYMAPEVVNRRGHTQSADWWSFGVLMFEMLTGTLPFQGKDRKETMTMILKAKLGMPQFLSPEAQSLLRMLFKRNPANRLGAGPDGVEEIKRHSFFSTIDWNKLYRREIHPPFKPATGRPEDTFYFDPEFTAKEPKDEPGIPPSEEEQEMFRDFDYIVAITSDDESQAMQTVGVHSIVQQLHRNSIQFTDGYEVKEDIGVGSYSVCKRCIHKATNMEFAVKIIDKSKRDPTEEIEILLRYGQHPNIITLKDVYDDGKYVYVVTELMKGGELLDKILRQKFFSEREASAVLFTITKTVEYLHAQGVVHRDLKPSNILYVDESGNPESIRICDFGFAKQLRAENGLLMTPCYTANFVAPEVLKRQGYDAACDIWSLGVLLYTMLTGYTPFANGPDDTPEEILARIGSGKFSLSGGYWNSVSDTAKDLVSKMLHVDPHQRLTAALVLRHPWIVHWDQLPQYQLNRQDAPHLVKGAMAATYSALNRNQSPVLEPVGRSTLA

“S6K1: GST/myc-tagged S6 kinase purified from HEK293T cells”: the “rescue of Pol I transcription in extracts from rapamycin-treated cells” value with Pol I transcription [1] is given as “activated Pol I transcription to an extent that compared to that of exogenous TIF-IA”.

B1: GST/TIF-IA409-632: GST fusion of a TIF-IA C-terminal fragment lacking amino acids 633-651 (protein, UniProt Q9NYV6 409-632, looked up, fragment)
chain: SFLARAKFIPLITVKSCLDLLVNWLHIYLNNQDSGTKAFCDVALHGPFYSACQAVFYTFVFRHKQLLSGNLKEGLQYLQSLNFERIVMSQLNPLKICLPSVVNFFAAITNKYQLVFCYTIIERNNRQMLPVIRSTAGGDSVQICTNPLDTFFPFDPCVLKRSKKFIDPIYQVWEDMSAEELQEFKKPMKKDIVEDEDDDFLKGEVPQNDTVIGITPSSFDTHFR
modifications: GST fusion
As for B1, the “phosphorylation by RSK2 in vitro” value in the assay with RSK2 is “not phosphorylated”.

B2: GST/TIF-IA409-651: GST fusion of the C-terminal part of TIF-IA containing aa 410-651 (protein, UniProt Q9NYV6 410-651, looked up, fragment)
chain: FLARAKFIPLITVKSCLDLLVNWLHIYLNNQDSGTKAFCDVALHGPFYSACQAVFYTFVFRHKQLLSGNLKEGLQYLQSLNFERIVMSQLNPLKICLPSVVNFFAAITNKYQLVFCYTIIERNNRQMLPVIRSTAGGDSVQICTNPLDTFFPFDPCVLKRSKKFIDPIYQVWEDMSAEELQEFKKPMKKDIVEDEDDDFLKGEVPQNDTVIGITPSSFDTHFRSPSSSVGSPPVLYMQPSPL
modifications: GST fusion
In the case of B2, the “phosphorylation by RSK2 in vitro” value with RSK2 is on record as “efficiently phosphorylated”.

B3: UBF: basal Pol I transcription initiation factor, FLAG-tagged UBF1 purified from Sf9 cells (protein, UniProt P17480 1-764, looked up)
Nucleolar transcription …: MNGEADCPTDLEMAAPKGQDRWSQEDMLTLLECMKNNLPSNDSSKFKTTESHMDWEKVAFKDFSGDMCKLKWVEISNEVRKFRTLTELILDAQEHVKNPYKGKKLKKHPDFPKKPLTPYFRFFMEKRAKYAKLHPEMSNLDLTKILSKKYKELPEKKKMKYIQDFQREKQEFERNLARFREDHPDLIQNAKKSDIPEKPKTPQQLWYTHEKKVYLKVRPDATTKEVKDSLGKQWSQLSDKKRLKWIHKALEQRKEYEEIMRDYIQKHPELNISEEGITKSTLTKAERQLKDKFDGRPTKPPPNSYSLYCAELMANMKDVPSTERMVLCSQQWKLLSQKEKDAYHKKCDQKKKDYEVELLRFLESLPEEEQQRVLGEEKMLNINKKQATSPASKKPAQEGGKGGSEKPKRPVSAMFIFSEEKRRQLQEERPELSESELTRLLARMWNDLSEKKKAKYKAREAALKAQSERKPGGEREERGKLPESPKRAEEIWQQSVIGDYLARFKNDRVKALKAMEMTWNNMEKKEKLMWIKKAAEDQKRYERELSEMRAPPAATNSSKKMKFQGEPKKPPMNGYQKFSQELLSNGELNHLPLKERMVEIGSRWQRISQSQKEHYKKLAEEQQKQYKVHLDLWVKSLSPQDRAAYKEYISNKRKSMTKLRGPNPKSSRTTLQSKSESEEDDEEDEDDEDEDEEEEDDENGDSSEDGGDSSESSSEDESEDGDENEEDDEDEDDDEDDDEDEDNESEGSSSSSSSSGDSSDSDSN
modifications: UBF1 FLAG tag
notes: basal Pol I transcription initiation factor, FLAG-tagged UBF1 purified from Sf9 cells
As for B3, the “rescue of Pol I transcription in extracts from PD98059-treated cells” value in the assay on Pol I transcription [2] is recorded as “had no effect”.
